Experimental data from patent US20230265151A1, “GIP/GLP1 CO-AGONIST COMPOUNDS” (priority 2020, published 2023).
*1 amine or outer side, *2 acyl side, *3 side chain or, on linkers, in order; H or OH if unused. Where no end group is shown, it is not given here. Side-chain parts run from the residue outwards. [ ]: non-standard residue; d: D form. The star is where a group is joined. γGlu = O=C(O)[C@H](CCC(=O)[*:2])N[*:1]; C14 diacid = O=C(O)CCCCCCCCCCCCC(=O)*; αMeY = C[C@](N)(Cc1ccc(O)cc1)C(=O)O; αMeF = C[C@](N)(Cc1ccccc1)C(=O)O; αMeL = CC(C)C[C@](C)(N)C(=O)O; Orn = NCCC[C@H](N)C(=O)O; AEEA = NCCOCCOCC(=O)O; Aib = CC(C)(N)C(=O)O

T1: human glucose-dependent insulinotropic polypeptide (GIP) receptor (human, UniProt P48546 22-466)
T1 sequence (looked up): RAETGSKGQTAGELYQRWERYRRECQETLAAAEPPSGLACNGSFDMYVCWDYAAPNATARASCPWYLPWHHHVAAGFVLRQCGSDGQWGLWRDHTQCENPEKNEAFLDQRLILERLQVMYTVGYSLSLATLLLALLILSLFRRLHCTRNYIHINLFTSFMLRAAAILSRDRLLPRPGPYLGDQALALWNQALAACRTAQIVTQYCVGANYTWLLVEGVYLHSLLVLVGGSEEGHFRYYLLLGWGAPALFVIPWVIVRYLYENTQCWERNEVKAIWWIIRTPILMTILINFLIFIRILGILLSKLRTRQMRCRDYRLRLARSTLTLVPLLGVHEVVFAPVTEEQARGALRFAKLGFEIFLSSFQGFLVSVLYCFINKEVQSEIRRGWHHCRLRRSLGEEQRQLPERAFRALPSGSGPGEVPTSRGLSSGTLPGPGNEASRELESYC

B1: Example 174 (peptide)
peptide: YXEGTXTSDXSIXLDXKAQXEXIXXLIEGGKSSGAPPPS
modifications: Aib2, αMeF6, 4Pal10, αMeL13, Orn16, K17(Z), Aib20, αMeF22, D-Glu24, αMeF25, K31(Z), C-terminal NH2; Z = AEEA2-(γ-Glu)-CO-(CH2)10-CH3
B2: Example 179 (peptide)
peptide: YXEGTXTSDVSIXLDXKAQXEFIXXLIEGGKSSGAPPPS
modifications: Aib2, αMeF6, αMeL13, Orn16, K17(Z), Aib20, D-Glu24, αMeY25, K31(Z), C-terminal NH2; Z = AEEA2-(γ-Glu)-CO-(CH2)12-CO2H
B3: Example 181 (peptide)
peptide: YXEGTXTSDVSIXLDXKAQXEFIKXLIEGGPSSGAPPPS
modifications: Aib2, αMeF6, αMeL13, Orn16, K17(Z), Aib20, K24(Z), αMeY25, C-terminal NH2; Z = AEEA2-(γ-Glu)-CO-(CH2)12-CO2H
B4: Example 191 (peptide)
peptide: YXEGTXTSDXSIXLDXIAQXKFIKXLIEGGPSSGAPPPS
modifications: Aib2, αMeF(2F)6, 4Pal10, αMeL13, Orn16, Aib20, K21(Z), K24(Z), αMeY25, C-terminal NH2; Z = AEEA2-CO-(CH2)12-CO2H
B5: Example 192 (peptide)
peptide: YXEGTXTSDXSIXLDXIAQXEFIKXLIKGGPSSGAPPPS
modifications: Aib2, αMeF(2F)6, 4Pal10, αMeL13, Orn16, Aib20, K24(Z), αMeY25, K28(Z), C-terminal NH2; Z = AEEA2-CO-(CH2)12-CO2H
B6: Example 193 (peptide)
peptide: YXEGTXTSDXSIXLDXIAQXEFIKXLIEGGKSSGAPPPS
modifications: Aib2, αMeF(2F)6, 4Pal10, αMeL13, Orn16, Aib20, K24(Z), αMeY25, K31(Z), C-terminal NH2; Z = AEEA2-CO-(CH2)12-CO2H
B7: Example 194 (peptide)
peptide: YXEGTXTSDXSIXLDXIAQXEFIKXLIEGGPSSGAPPPSK
modifications: Aib2, αMeF(2F)6, 4Pal10, αMeL13, Orn16, Aib20, K24(Z), αMeY25, K40(Z), C-terminal NH2; Z = AEEA2-CO-(CH2)12-CO2H
B8: Example 195 (peptide)
peptide: YXEGTXTSDXSIXLDXIAQXKFIXXLIEGGKSSGAPPPS
modifications: not fully specified; Aib2, αMeF(2F)6, 4Pal10, αMeL13, Orn16, Aib20, K21(AEEA2-CO-(CH2)12-CO2H), D-Glu24, αMeY25, K31(AEEA2-CO-(CH2)2-CO2H as printed), C-terminal NH2
B9: Example 196 (peptide)
peptide: YXEGTXTSDXSIXLDXIAQXKFIXXLIEGGPSSGAPPPSK
modifications: Aib2, αMeF(2F)6, 4Pal10, αMeL13, Orn16, Aib20, K21(Z), D-Glu24, αMeY25, K40(Z), C-terminal NH2; Z = AEEA2-CO-(CH2)12-CO2H
B10: Example 197 (peptide)
peptide: YXEGTXTSDXSIXLDXIAQXEFIKXLIEGGKSSGAPPPS
modifications: Aib2, αMeF(2F)6, 4Pal10, αMeL13, Orn16, Aib20, K24(Z), αMeY25, K31(Z), C-terminal NH2; Z = (εK)-(γ-Glu)-CO-(CH2)12-CO2H
B11: Example 198 (peptide)
peptide: YXEGTXTSDXSIXLDXIAQXEFIKXLIEGGKSSGAPPPS
modifications: Aib2, αMeF(2F)6, 4Pal10, αMeL13, Orn16, Aib20, K24(Z), αMeY25, K31(Z), C-terminal NH2; Z = (εK)-(εK)-(γ-Glu)-CO-(CH2)12-CO2H
B12: Example 199 (peptide)
peptide: YXEGTXTSDXXIXLDXKAQXEFIXXLIEGGKSSGAPPPS
modifications: Aib2, αMeF(2F)6, 4Pal10, Dap11, αMeL13, Orn16, K17(Z), Aib20, D-Glu24, αMeY25, K31(Z), C-terminal NH2; Z = AEEA2-(γ-Glu)-CO-(CH2)12-CO2H

What was measured:
Assay in all cases: cell-based or functional assay
[1] = molecular target: T1, human glucose-dependent insulinotropic …
[2] = molecular target: human glucagon-like peptide-1 (GLP-1) receptor (human, UniProt P43220 24-463)
[3] = molecular target: human glucagon receptor (human, UniProt P47871 26-477)

Binder	cAMP EC50 [1] [nM]	cAMP Emax [1] [%]	cAMP EC50 [2] [nM]	cAMP Emax [2] [%]	cAMP EC50 [3] [nM]
B1	0.0284	92.2	0.33	98.2	> 9950
B2	0.15	91	0.461	99	> 9950
B3	0.154	94.6	0.182	–	> 9950
Y[Aib]EGT[αMeF]TSDV[Aib]I[αMeL]LD[Orn]K([AEEA-AEEA-γGlu-C14 diacid])AQ[Aib]EFIK([AEEA-AEEA-γGlu-C14 diacid])[αMeY]LIEGGKSSGAPPPS-NH2 (not fully specified) [Example 182]	0.368	89	0.185	96.9	> 9950
B4	0.0601	90	0.926	98.6	> 9950
B5	0.0375	–	0.518	–	> 9950
B6	0.0201	97.2	0.382	–	> 9950
B7	0.0233	93.1	0.317	103	> 9950
B8	0.0219	88.5	0.343	–	> 9950
B9	0.0232	–	0.356	–	> 9950
B10	0.0338	102	0.336	–	> 9950
B11	0.0269	94	0.362	–	> 9950
B12	0.0587	96.9	3.2	96.7	> 9950
